From patent publication US20050055741, “Plant transcriptional repressor, proteic nuclear factors binding thereto, and uses thereof” (published 2005) come the findings set out here.

In data set [1] the target is T1, SEBF (affinity purified, 29 and 28 kD bands) (Solanum tuberosum).
T1 chain: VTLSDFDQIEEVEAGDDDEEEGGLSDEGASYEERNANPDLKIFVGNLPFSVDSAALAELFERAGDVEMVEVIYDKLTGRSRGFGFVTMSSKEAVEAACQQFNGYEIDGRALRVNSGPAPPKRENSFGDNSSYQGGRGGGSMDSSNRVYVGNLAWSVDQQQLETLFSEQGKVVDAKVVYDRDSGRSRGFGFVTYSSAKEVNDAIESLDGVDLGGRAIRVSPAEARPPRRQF
The data set can be described thus: southwestern; 29 and 28 kD bands each bind. Conditions: tags: none; label: 32P. On the procedure:
FIG. 4 is a picture of a gel showing the purification of SEBF. Coomassie staining of proteins from each step of the purification of SEBF (lanes 1 through 4). The crude nuclear extract (Crude; lane 1) was loaded on a Q-Sepharose™ column. SEBF was eluted at 400 mM NaCl (Q-seph; lane 2) before two rounds of affinity purification (Aff.1, Aff.2; lane 3, lane 4). […] Arrows indicate the two purified bands. Molecular weight markers are indicated on the left.
Both of these proteins were subjected to N-terminal sequence analysis.

The target of data set [2] is T2, SEBF (recombinant) (Solanum tuberosum).
T2 chain: T1 chain
The data set can be described thus: EMSA; 10 ng recombinant SEBF. The settings on record: tags: GST fusion expressed in E. coli BL21; GST cleaved with thrombin; label: 32P. The source says:
(§1) FIGS. 2A, 2B, 2C and 2D show mutational analysis of potato silencing element (SE). FIG. 2A: Schematic representation of the reporter constructs and mutant oligonucleotides used in this study. Reporter constructs contain the PR-10a promoter region from −135 to +136 fused to the bacterial gene uidA encoding […] (GUS). The position of the elicitor response element (ERE), the silencing element (SE) and the TATA box are shown (TATA). The transcriptional start site is indicated by an arrow. The common sequence between the wild-type (WT; SEQ ID NO:45) and mutant oligonucleotides m1 to m5 (SEQ ID NOs:1 to 5) is indicated by dashed lines, and mutated nucleotides are represented by lowercase letters. FIG. 2B: EMSA studies using 10 μg of crude potato tuber nuclear preparation and 20,000 CPM of the ³²P labeled single-stranded CS oligonucleotides presented in FIG. 2A. FIG. 2C: EMSA studies using 10 ng of purified recombinant SEBF and 20,000 CPM of the ³²P labeled single-stranded CS oligonucleotides presented in FIG. 2A. FIG. 2D: The sequence from −52 to −27 of the PR-10a promoter fused to the uidA gene was replaced by the sequences presented in FIG. 2A. The resulting plasmids were electroporated in potato leaf protoplasts and the GUS activity was measured. The histogram represents fold activity to wild type (WT=1). […]

For data set [3], the target named is T2, SEBF (recombinant). The data set can be described thus: EMSA; specificity stated similar to native SEBF. The settings on record: tags: GST fusion expressed in E. coli BL21; GST cleaved with thrombin; label: 32P.
Excerpt: as §1

Data set [4] concerns the target T2, SEBF (recombinant). The data set can be described thus: EMSA; specificity similar to native SEBF. Conditions: tags: GST fusion expressed in E. coli BL21; GST cleaved with thrombin; label: 32P.
Excerpt: as §1

B1: PR-10a SE coding strand WT (ssDNA)
DNA: TCTAGACTGTCACTTGTTTTTTTTA
For the molecule B1, the binding result (in data set [1]; in the data set with SEBF (recombinant) [2]) was “binds” each time.

B2: SE m2 (ssDNA)
DNA: CATGGACTGTCACTTGTTTTTTTTA
For B2, the binding result in the data set with SEBF (recombinant) [3] is given as “binds”.

B3: SE m1 (ssDNA)
DNA: TCTAGATCGAATTCCGCTCGACCGG
In the case of B3, the binding result in the data set with SEBF (recombinant) [4] is “no binding”.
